Experimental data taken from article PMC3606058 (Structure (London, England : 1993), 2013).

Biological target: T1, Pf Cmr2dHD (Pf1129), HD-domain-deleted Cmr2, N-terminally poly-histidine tagged (Pyrococcus furiosus, UniProt Q8U1S6 213-871)
T1 sequence (looked up): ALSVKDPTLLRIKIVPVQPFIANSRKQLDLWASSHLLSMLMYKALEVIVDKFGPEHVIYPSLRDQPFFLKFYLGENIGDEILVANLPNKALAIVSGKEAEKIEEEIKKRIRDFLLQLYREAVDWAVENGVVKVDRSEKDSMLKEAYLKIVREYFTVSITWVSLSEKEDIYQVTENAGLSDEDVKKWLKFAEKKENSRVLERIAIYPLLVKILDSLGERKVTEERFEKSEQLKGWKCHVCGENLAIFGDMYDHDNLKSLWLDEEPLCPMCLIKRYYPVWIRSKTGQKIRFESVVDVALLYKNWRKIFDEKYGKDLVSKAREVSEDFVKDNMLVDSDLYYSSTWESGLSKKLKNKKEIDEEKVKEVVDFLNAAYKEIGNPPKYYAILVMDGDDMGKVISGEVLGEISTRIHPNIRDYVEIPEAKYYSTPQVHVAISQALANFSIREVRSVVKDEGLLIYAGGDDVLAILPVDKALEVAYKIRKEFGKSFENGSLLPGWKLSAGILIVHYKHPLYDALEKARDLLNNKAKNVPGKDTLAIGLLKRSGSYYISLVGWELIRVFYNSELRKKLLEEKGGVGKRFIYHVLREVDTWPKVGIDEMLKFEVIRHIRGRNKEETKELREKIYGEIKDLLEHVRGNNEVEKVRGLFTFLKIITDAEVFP
Test: crystal structure

stoichiometry N: 1 Cmr3:Cmr2dHD
B1: Pf Cmr3 (Pf1128), untagged (natural protein, Pyrococcus furiosus)
chain: MIEVTFTPYDVLLFRESRPFDAGSESVARSIIPLPQTVAGAIRTLLFYKGLKNCVGVGEEEPEFTLVGIAIGTEKGRIYPLPFNIIKSEKFYKVVNPGRFLGKLILPPKGKYKSGYVTESILEKYLKGELKEVEENKVIRIEKEKRIGIKLSREKKVVEEGMLYTVEFLRIEKIYAWIEDPGCGIKDILSSYEFLTLGGESRVAFVEVDDKTPDIFNRELGSTKKALFYFSTPTIGKVGEIVQELEKRLNAKIDDYLLVSSRPTAISGWDMHEKKPKGTKFAIPPGSVLFVEFKEEVEVPPYIKLGKLKKLGYGLALGGIWE
